Measurements: paper doi:10.1101/2023.01.31.526478

Biological target: SNAP-SPIN1 (human) (UniProt Q9Y657)
Assay: FRET or BRET

UniProt Q9Y657, sequence (Q9Y657 whole entry): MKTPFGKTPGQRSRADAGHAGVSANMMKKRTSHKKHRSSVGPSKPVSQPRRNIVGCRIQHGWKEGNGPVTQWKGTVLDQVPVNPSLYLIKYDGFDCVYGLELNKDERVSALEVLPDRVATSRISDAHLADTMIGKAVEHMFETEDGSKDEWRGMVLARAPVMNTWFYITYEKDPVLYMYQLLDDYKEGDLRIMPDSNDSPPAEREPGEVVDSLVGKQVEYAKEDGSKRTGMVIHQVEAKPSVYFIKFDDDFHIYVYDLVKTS

Substance: Halo-WDR76 (from UniProt Q9H967 1-626) (natural protein)
- FRET efficiency: 2%
